Experiment [1] addresses Purified Mor1 (Example 9) (Mus musculus (Mouse)) (UniProt P42866). Nature of the experiment: cell-based or functional assay.
Experiment [2] has the same target. Nature of the experiment: method not told at that place (Ki; presumably radioligand displacement).

Sequence of Purified Mor1 (Example 9) (Mus musculus (Mouse)) (P42866 52-358, tags or fused parts left off): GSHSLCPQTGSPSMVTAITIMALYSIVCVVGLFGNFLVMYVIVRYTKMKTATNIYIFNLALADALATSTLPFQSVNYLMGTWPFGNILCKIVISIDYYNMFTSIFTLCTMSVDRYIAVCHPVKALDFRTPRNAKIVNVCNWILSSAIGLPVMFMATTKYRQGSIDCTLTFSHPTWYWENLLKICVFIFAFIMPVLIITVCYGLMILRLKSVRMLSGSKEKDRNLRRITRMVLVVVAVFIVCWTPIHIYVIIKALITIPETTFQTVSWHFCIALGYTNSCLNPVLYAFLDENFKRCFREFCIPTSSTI

B1: XA8639 (VHH)
VHH: QVQLVESGGGLVRPGGSLRLSCVDSERTSYPMGWFRRAPGKEREFVASITWSGIDPTYADSVADRFTTSRDVANNTLYLQMNSLKHEDTAVYYCAARAPVGQSSSPYDYDYWGQGTQVTVSS
As for B1, in experiment [1], the enhancement of BU72 affinity for Mor1 in HDL particles turned out to be 176 fold and the inhibition constant (Ki) of agonist BU72 in [3H]-diprenorphine competition on Mor1 in HDL particles, in presence of 5 µM XA8639 turned out to be 0.0085 nM.

B2: XA8635 (VHH)
VHH: QVQLVESGGGLVQAGGSLRLSCAASGSISSISTMGWYRQAPGNERELVAAITSGGSTNYADSVKGRFTISRDNAKNTVYLQMNSLKPEDTAVYYCNFKYYSGSYFYKSEYDYWGQGTQVTVSS
In turn, B2 had a Ki in experiment [2] of 12 nM.
